# Laboratory results taken from publication PMC9482650, “Quantitative fragmentomics allow affinity mapping of interactomes” (Nature Communications, 2022).
# T1: PARD3B_1, Q8TEW8
# T1 sequence (Q8TEW8 196-299, limits assumed, looked up): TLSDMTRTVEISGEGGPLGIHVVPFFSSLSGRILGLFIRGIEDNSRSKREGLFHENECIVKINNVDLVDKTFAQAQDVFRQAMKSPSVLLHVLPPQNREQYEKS
# T2: DLG3_1, Q92796
# T2 sequence (Q92796 125-227, limits assumed, looked up): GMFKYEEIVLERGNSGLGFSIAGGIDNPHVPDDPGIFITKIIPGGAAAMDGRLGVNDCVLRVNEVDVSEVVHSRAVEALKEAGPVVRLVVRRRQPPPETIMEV
# T3: SIPA1L2, Q9P2F8
# T3 sequence (Q9P2F8 945-1036, limits assumed, looked up): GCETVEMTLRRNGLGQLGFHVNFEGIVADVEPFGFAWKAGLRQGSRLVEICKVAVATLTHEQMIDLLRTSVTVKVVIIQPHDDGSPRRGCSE
# T4: LNX2_2, Q8N448
# T4 sequence (Q8N448 334-432, limits assumed, looked up): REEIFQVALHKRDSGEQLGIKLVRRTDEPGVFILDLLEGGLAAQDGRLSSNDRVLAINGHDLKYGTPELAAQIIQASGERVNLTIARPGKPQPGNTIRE
# T5: DFNB31_3, Q9P202
# T5 sequence (Q9P202 811-907, limits assumed, looked up): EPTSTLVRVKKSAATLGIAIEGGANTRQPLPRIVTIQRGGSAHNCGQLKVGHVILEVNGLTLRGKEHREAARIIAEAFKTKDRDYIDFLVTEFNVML
# T6: GRIP1_7, Q9Y3R0
# T6 sequence (Q9Y3R0 999-1096, limits assumed, looked up): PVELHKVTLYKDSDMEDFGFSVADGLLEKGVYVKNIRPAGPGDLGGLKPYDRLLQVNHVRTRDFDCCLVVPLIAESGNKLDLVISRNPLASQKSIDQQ
# T7: GRIP1_4, Q9Y3R0
# T7 sequence (Q9Y3R0 467-571, limits assumed, looked up): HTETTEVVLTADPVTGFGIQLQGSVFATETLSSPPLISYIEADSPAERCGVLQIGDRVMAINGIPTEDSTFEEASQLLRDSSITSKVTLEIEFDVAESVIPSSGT
# T8: LRRC7, Q96NW7
# T8 sequence (Q96NW7 1440-1537, limits assumed, looked up): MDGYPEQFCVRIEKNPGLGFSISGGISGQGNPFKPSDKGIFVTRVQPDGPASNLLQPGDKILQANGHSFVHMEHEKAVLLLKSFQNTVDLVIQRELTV
# T9: MPDZ_10, O75970
# T9 sequence (O75970 1624-1722, limits assumed, looked up): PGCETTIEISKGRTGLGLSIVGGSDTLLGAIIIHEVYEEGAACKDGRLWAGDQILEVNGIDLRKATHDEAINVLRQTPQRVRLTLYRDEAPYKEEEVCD
# T10: PCLO, Q9Y6V0
# T10 sequence (Q9Y6V0 4491-4600, limits assumed, looked up): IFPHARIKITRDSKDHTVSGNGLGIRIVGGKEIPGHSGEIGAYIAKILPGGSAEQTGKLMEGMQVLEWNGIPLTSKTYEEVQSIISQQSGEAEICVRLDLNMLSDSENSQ
# T11: TIAM2, Q8IVF5
# T11 sequence (Q8IVF5 885-986, limits assumed, looked up): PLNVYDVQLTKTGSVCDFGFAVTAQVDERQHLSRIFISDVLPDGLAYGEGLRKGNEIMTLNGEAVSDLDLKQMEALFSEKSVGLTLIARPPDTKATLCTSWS
# Biological target: SCRIB_2, Q14160
# Experiment: holdup assay
# Parameters: key: below the threshold = too weak to quantify, mostly under pKd 3.1 to 4
# Details: plain residues with an end cap or a label only (N-terminal biotin on a linker: ado-ado)
# SCRIB_2, Q14160, sequence (Q14160 857-960): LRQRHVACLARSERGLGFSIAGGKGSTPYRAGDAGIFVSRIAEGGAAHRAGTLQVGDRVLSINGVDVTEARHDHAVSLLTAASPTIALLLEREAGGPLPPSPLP
row,pKd,Binder
1,3.57,"RRLQGTSSMV [GOLT1A, Q6ZVE7]"

# Biological target: DLG2_2, Q15700
# Experiment: holdup assay
# Parameters: key: below the threshold = too weak to quantify, mostly under pKd 3.1 to 4
# Details: plain residues with an end cap or a label only (N-terminal biotin on a linker: ado-ado)
# DLG2_2, Q15700, sequence (Q15700 189-283): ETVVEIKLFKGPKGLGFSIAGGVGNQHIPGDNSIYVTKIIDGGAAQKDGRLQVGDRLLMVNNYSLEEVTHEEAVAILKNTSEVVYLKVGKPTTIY
row,pKd,Binder
1,4.39,"RRLQGTSSMV [GOLT1A, Q6ZVE7]"

# Biological target: AHNAK1, Q09666
# Experiment: holdup assay
# Parameters: key: below the threshold = too weak to quantify, mostly under pKd 3.1 to 4
# Details: plain residues with an end cap or a label only (N-terminal biotin on a linker: ado-ado)
# AHNAK1, Q09666, sequence (Q09666 4-100): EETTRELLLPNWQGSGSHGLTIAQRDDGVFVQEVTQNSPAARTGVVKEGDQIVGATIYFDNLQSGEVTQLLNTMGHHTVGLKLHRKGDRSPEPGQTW
row,pKd,Binder
1,below the threshold,"RRLQGTSSMV [GOLT1A, Q6ZVE7]"

# Biological target: Inadl_1, Q8NI35
# Experiment: holdup assay
# Parameters: key: below the threshold = too weak to quantify, mostly under pKd 3.1 to 4
# Details: plain residues with an end cap or a label only (N-terminal biotin on a linker: ado-ado)
# Inadl_1, Q8NI35, sequence (Q8NI35 113-229): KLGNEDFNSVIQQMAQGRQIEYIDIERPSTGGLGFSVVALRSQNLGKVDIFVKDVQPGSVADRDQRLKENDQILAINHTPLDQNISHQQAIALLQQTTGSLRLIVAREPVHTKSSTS
row,pKd,Binder
1,below the threshold,"RRLQGTSSMV [GOLT1A, Q6ZVE7]"

# Biological target: NOS1, P29475
# Experiment: holdup assay
# Parameters: key: below the threshold = too weak to quantify, mostly under pKd 3.1 to 4
# Details: plain residues with an end cap or a label only (N-terminal biotin on a linker: ado-ado)
# NOS1, P29475, sequence (P29475 9-101): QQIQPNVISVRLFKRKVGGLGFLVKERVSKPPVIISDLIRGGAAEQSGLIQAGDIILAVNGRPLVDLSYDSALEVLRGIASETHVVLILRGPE
row,pKd,Binder
1,3.77,"RRLQGTSSMV [GOLT1A, Q6ZVE7]"

# Biological target: T1, PARD3B_1, Q8TEW8
# Experiment: holdup assay
# Parameters: key: below the threshold = too weak to quantify, mostly under pKd 3.1 to 4
# Details: plain residues with an end cap or a label only (N-terminal biotin on a linker: ado-ado)
row,pKd,Binder
1,below the threshold,"RRLQGTSSMV [GOLT1A, Q6ZVE7]"

# Biological target: T2, DLG3_1, Q92796
# Experiment: holdup assay
# Parameters: key: below the threshold = too weak to quantify, mostly under pKd 3.1 to 4
# Details: plain residues with an end cap or a label only (N-terminal biotin on a linker: ado-ado)
row,pKd,Binder
1,3.81,"RRLQGTSSMV [GOLT1A, Q6ZVE7]"

# Biological target: T3, SIPA1L2, Q9P2F8
# Experiment: holdup assay
# Parameters: key: below the threshold = too weak to quantify, mostly under pKd 3.1 to 4
# Details: plain residues with an end cap or a label only (N-terminal biotin on a linker: ado-ado)
row,pKd,Binder
1,below the threshold,"RRLQGTSSMV [GOLT1A, Q6ZVE7]"

# Biological target: PDLIM1, O00151
# Experiment: holdup assay
# Parameters: key: below the threshold = too weak to quantify, mostly under pKd 3.1 to 4
# Details: plain residues with an end cap or a label only (N-terminal biotin on a linker: ado-ado)
# PDLIM1, O00151, sequence (O00151 1-87): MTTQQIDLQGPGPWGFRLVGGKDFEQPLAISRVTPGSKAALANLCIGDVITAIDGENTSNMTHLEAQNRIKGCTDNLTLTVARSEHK
row,pKd,Binder
1,below the threshold,"RRLQGTSSMV [GOLT1A, Q6ZVE7]"

# Biological target: NHERF4_2, Q86UT5
# Experiment: holdup assay
# Parameters: key: below the threshold = too weak to quantify, mostly under pKd 3.1 to 4
# Details: plain residues with an end cap or a label only (N-terminal biotin on a linker: ado-ado)
# NHERF4_2, Q86UT5, sequence (Q86UT5 220-308): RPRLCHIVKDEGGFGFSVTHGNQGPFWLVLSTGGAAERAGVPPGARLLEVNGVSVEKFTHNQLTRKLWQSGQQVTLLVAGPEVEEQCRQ
row,pKd,Binder
1,below the threshold,"RRLQGTSSMV [GOLT1A, Q6ZVE7]"

# Biological target: T4, LNX2_2, Q8N448
# Experiment: holdup assay
# Parameters: key: below the threshold = too weak to quantify, mostly under pKd 3.1 to 4
# Details: plain residues with an end cap or a label only (N-terminal biotin on a linker: ado-ado)
row,pKd,Binder
1,3.78,"RRLQGTSSMV [GOLT1A, Q6ZVE7]"

# Biological target: DLG1_1, Q12959
# Experiment: holdup assay
# Parameters: key: below the threshold = too weak to quantify, mostly under pKd 3.1 to 4
# Details: plain residues with an end cap or a label only (N-terminal biotin on a linker: ado-ado)
row,pKd,Binder
1,4.08,"RRLQGTSSMV [GOLT1A, Q6ZVE7]"

# Biological target: T5, DFNB31_3, Q9P202
# Experiment: holdup assay
# Parameters: key: below the threshold = too weak to quantify, mostly under pKd 3.1 to 4
# Details: plain residues with an end cap or a label only (N-terminal biotin on a linker: ado-ado)
row,pKd,Binder
1,3.66,"RRLQGTSSMV [GOLT1A, Q6ZVE7]"

# Biological target: MAGI2_3, Q86UL8
# Experiment: holdup assay
# Parameters: key: below the threshold = too weak to quantify, mostly under pKd 3.1 to 4
# Details: plain residues with an end cap or a label only (N-terminal biotin on a linker: ado-ado)
# MAGI2_3, Q86UL8, sequence (Q86UL8 600-682): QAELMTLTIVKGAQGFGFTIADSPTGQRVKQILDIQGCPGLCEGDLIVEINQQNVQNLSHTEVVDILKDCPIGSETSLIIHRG
row,pKd,Binder
1,3.77,"RRLQGTSSMV [GOLT1A, Q6ZVE7]"

# Biological target: SCRIB_3, Q14160
# Experiment: holdup assay
# Parameters: key: below the threshold = too weak to quantify, mostly under pKd 3.1 to 4
# Details: plain residues with an end cap or a label only (N-terminal biotin on a linker: ado-ado)
# SCRIB_3, Q14160, sequence (Q14160 999-1103): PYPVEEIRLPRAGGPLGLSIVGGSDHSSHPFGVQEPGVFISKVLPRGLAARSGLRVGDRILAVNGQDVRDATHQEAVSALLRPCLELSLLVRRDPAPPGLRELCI
row,pKd,Binder
1,below the threshold,"RRLQGTSSMV [GOLT1A, Q6ZVE7]"

# Biological target: T6, GRIP1_7, Q9Y3R0
# Experiment: holdup assay
# Parameters: key: below the threshold = too weak to quantify, mostly under pKd 3.1 to 4
# Details: plain residues with an end cap or a label only (N-terminal biotin on a linker: ado-ado)
row,pKd,Binder
1,below the threshold,"RRLQGTSSMV [GOLT1A, Q6ZVE7]"

# Biological target: T7, GRIP1_4, Q9Y3R0
# Experiment: holdup assay
# Parameters: key: below the threshold = too weak to quantify, mostly under pKd 3.1 to 4
# Details: plain residues with an end cap or a label only (N-terminal biotin on a linker: ado-ado)
row,pKd,Binder
1,below the threshold,"RRLQGTSSMV [GOLT1A, Q6ZVE7]"

# Biological target: GRID2IP_1, A4D2P6
# Experiment: holdup assay
# Parameters: key: below the threshold = too weak to quantify, mostly under pKd 3.1 to 4
# Details: plain residues with an end cap or a label only (N-terminal biotin on a linker: ado-ado)
# GRID2IP_1, A4D2P6, sequence (A4D2P6 1-87): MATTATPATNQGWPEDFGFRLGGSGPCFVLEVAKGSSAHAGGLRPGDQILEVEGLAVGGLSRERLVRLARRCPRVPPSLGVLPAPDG
row,pKd,Binder
1,below the threshold,"RRLQGTSSMV [GOLT1A, Q6ZVE7]"

# Biological target: T8, LRRC7, Q96NW7
# Experiment: holdup assay
# Parameters: key: below the threshold = too weak to quantify, mostly under pKd 3.1 to 4
# Details: plain residues with an end cap or a label only (N-terminal biotin on a linker: ado-ado)
row,pKd,Binder
1,below the threshold,"RRLQGTSSMV [GOLT1A, Q6ZVE7]"

# Biological target: LAP2, Q96RT1
# Experiment: holdup assay
# Parameters: key: below the threshold = too weak to quantify, mostly under pKd 3.1 to 4
# Details: plain residues with an end cap or a label only (N-terminal biotin on a linker: ado-ado)
# LAP2, Q96RT1, sequence (Q96RT1 other isoform, or with tags, fused parts or gaps): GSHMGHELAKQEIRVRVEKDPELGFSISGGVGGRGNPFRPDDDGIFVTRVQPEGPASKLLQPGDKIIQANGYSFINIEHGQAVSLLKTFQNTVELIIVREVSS
row,pKd,Binder
1,below the threshold,"RRLQGTSSMV [GOLT1A, Q6ZVE7]"

# Biological target: T9, MPDZ_10, O75970
# Experiment: holdup assay
# Parameters: key: below the threshold = too weak to quantify, mostly under pKd 3.1 to 4
# Details: plain residues with an end cap or a label only (N-terminal biotin on a linker: ado-ado)
row,pKd,Binder
1,3.65,"RRLQGTSSMV [GOLT1A, Q6ZVE7]"

# Biological target: TJP1_2, Q07157
# Experiment: holdup assay
# Parameters: key: below the threshold = too weak to quantify, mostly under pKd 3.1 to 4
# Details: plain residues with an end cap or a label only (N-terminal biotin on a linker: ado-ado)
# TJP1_2, Q07157, sequence (Q07157 181-274): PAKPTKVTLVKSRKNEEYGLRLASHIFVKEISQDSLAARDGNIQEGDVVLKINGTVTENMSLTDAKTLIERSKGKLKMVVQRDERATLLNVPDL
row,pKd,Binder
1,below the threshold,"RRLQGTSSMV [GOLT1A, Q6ZVE7]"

# Biological target: DLG4_2, P78352
# Experiment: holdup assay
# Parameters: key: below the threshold = too weak to quantify, mostly under pKd 3.1 to 4
# Details: plain residues with an end cap or a label only (N-terminal biotin on a linker: ado-ado)
# DLG4_2, P78352, sequence (P78352 155-259): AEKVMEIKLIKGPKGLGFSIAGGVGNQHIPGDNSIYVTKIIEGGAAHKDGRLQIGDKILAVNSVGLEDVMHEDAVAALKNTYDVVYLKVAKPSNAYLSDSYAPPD
row,pKd,Binder
1,4.71,"RRLQGTSSMV [GOLT1A, Q6ZVE7]"

# Biological target: T10, PCLO, Q9Y6V0
# Experiment: holdup assay
# Parameters: key: below the threshold = too weak to quantify, mostly under pKd 3.1 to 4
# Details: plain residues with an end cap or a label only (N-terminal biotin on a linker: ado-ado)
row,pKd,Binder
1,below the threshold,"RRLQGTSSMV [GOLT1A, Q6ZVE7]"

# Biological target: T11, TIAM2, Q8IVF5
# Experiment: holdup assay
# Parameters: key: below the threshold = too weak to quantify, mostly under pKd 3.1 to 4
# Details: plain residues with an end cap or a label only (N-terminal biotin on a linker: ado-ado)
row,pKd,Binder
1,4.03,"RRLQGTSSMV [GOLT1A, Q6ZVE7]"

# Biological target: HTRA1, Q92743
# Experiment: holdup assay
# Parameters: key: below the threshold = too weak to quantify, mostly under pKd 3.1 to 4
# Details: plain residues with an end cap or a label only (N-terminal biotin on a linker: ado-ado)
# HTRA1, Q92743, sequence (Q92743 360-477): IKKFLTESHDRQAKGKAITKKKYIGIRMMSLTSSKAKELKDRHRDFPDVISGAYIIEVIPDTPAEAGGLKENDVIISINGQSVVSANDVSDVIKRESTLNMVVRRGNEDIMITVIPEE
row,pKd,Binder
1,4,"RRLQGTSSMV [GOLT1A, Q6ZVE7]"

# Biological target: MAGI2_6, Q86UL8
# Experiment: holdup assay
# Parameters: key: below the threshold = too weak to quantify, mostly under pKd 3.1 to 4
# Details: plain residues with an end cap or a label only (N-terminal biotin on a linker: ado-ado)
# MAGI2_6, Q86UL8, sequence (Q86UL8 1141-1229): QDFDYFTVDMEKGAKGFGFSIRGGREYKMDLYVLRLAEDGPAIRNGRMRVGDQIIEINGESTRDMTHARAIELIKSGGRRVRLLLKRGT
row,pKd,Binder
1,3.68,"RRLQGTSSMV [GOLT1A, Q6ZVE7]"
